Experimental data: US12226454B2, “Pharmaceutical compositions and use thereof for relieving anticancer drug resistance and enhancing sensitivity of anticancer drug” (Rise Biopharmaceuticals Inc., priority 2015, dated 2025)

B1: RISE P-8: chemokine analogue peptide, SEQ ID NO: 1; analogous protein of CXCL8 (IL-8), antagonist of CXCR1 and CXCR2 (protein)
chain: GSKELRCQCIRSYSKPFHPKFIKELRVIPASQFCANTEIIVKLSDGRELCLDPKENWVQRVVEKFLKRAENS
modifications: RISE P-8
notes: analogous protein of CXCL8 (IL-8), antagonist of CXCR1 and CXCR2

Tests used:
[1] = system: IL-8, CXCR1 and CXCR2 mRNA in HCC827GR; test: Real-time PCR gene expression in HCC827GR; assay type: cell-based, human
Source text: (§1) 18 s was used as an internal loading control.
That is to say, RISE P-8 can compete with IL-8 and attenuate its feedback to regulate gene expression of IL-8, CXCR1 and CXCR2 decreased.

[2] = system: IL-8, CXCR1 and CXCR2 mRNA in PC9GR; test: Real-time PCR gene expression in PC9GR; assay type: cell-based, human; settings: 5 μM Gefitinib, 24 hrs
Source text: as §1
[…]. […] That is to say, RISE P-8 can compete with IL-8 and attenuate its feedback to regulate gene expression of IL-8, CXCR1 and CXCR2 decreased.

human neutrophil = test: Modified Boyden chamber neutrophil chemotaxis to CXCL8; assay type: cell-based; settings: CXCL8 combined with RISE P-8 in lower compartment
Procedure: Please refer to FIG. 5, neutrophil chemotaxis was assessed using modified Boyden chamber microchemotaxis assays. The CXCL8 alone or combined with RISE P-8, were placed in the lower compartment of the Boyden chamber wells and purified neutrophil in the upper compartment. The migrated neutrophil were lysed and detected. The percentages of neutrophil migration were assessed and presented with Chemotaxis Index (CI) value. That is to say, CI=(intensityRISE P-8−intensityHBSS)/(intensityCXCL8−intensityHBSS)×100%.

IL-8 in PC9GR = test: IL-8 protein expression in 3D (suspended) culture; assay type: cell-based, human; settings: RISE P-8 200 ng/ml, 24 hrs, 2D vs suspended
Procedure: (§2) Cells underwent serum-free 16-18 hr and suspended into 10^6 cells/mL in growth medium. 2×10^6 cells/well were seeded in coating/non-coating 6 well plates and treated with/without RISE P-8 (200 ng/ml) for 24 hrs.

IL-8 in PC9 = test: IL-8 protein expression in 3D (suspended) culture; assay type: cell-based, human; settings: PC9, RISE P-8 200 ng/ml, 24 hrs, 2D vs suspended
Procedure: as §2

HCC827GR [3] = test: Colony formation assay; assay type: cell-based, human; settings: RISE P-8 200 ng/mL with Gefitinib 5 μM, vs control group and IL-8 group
Procedure: (§3) The colony formation assay was also performed to evaluate cell proliferation.

PC9GR [4] = test: Colony formation assay; assay type: cell-based, human; settings: RISE P-8 200 ng/mL with Gefitinib 5 μM, vs control group and IL-8 group
Procedure: as §3

HCC827GR [5] = test: Matrigel transwell invasion assay; assay type: cell-based, human
Procedure: (§4) The invasion ability of cell was performed by using 8 μm pore size transwell (Corning FluoroBlok™). The transwell insert was coated with 60 μl matrigel (300 μg/ml in serum-free medium, BD Bioscience) overnight at 37° C. in 5% CO2 atmosphere. 2.5×10^4 cells in 0.2 mL of serum-free growth medium were seeded into the upper chamber coated with matrigel and then treated with drugs IL-8 (100 ng/ml) with/without RISE P-8 (200 ng/ml). After incubation for 24 hrs at 37° C. in 5% CO2, membrane of upper chamber was fixed with methanol and stained with propidium iodide (PI). The invasive cells in the bottom of membrane were imaged and counted by using an inverted fluorescence microscope (Observer.Z1, Zeiss) in five random fields of each specimen (magnification, ×100).

PC9GR [6] = test: Matrigel transwell invasion assay; assay type: cell-based, human
Procedure: as §4

[7] = system: LL/2 cells (Lewis lung carcinoma); test: Matrigel transwell invasion assay; assay type: cell-based, mouse; settings: RISE P-8 200 ng/ml, 24 hr
Procedure: Lewis lung carcinoma (LL/2) is a cell line established from the lung of a C57BL mouse bearing a tumor resulting from an implantation of primary Lewis lung carcinoma.
Please refer to FIG. 13A and FIG. 13B, the present invention also represented invasion of LL/2 cells (Louis lung carcinoma) treated with CXCL8, MIP-2 or RISE P-8. The character of LL/2 cancer cell is very prone to invasion into lung and grows rapidly. The LL/2 cells were seeded onto Matrigel-coated polycarbonate filters to analyze their invasive potentials. The cells were then incubated for 24 hr in chambers and were analyzed by staining PI and counted under a microscope. Representative fields of invasive cells on the transwell membrane (at 100× magnification) and the invasion rate were shown. The LL/2 cells treated with CXCL8 (100 ng/ml), RISE P-8 (200 ng/ml), or MIP-2 (50 ng/ml) respectively. […] MIP-2 is the CXCL8 homologues in murine.

[8] = IL-8 100 ng/mL + RISE P-8 200 ng/mL vs IL-8 group
[9] = RISE P-8 200 ng/mL, Gefitinib 5 μM, 24 hrs, vs control group

Row | Molecule | IL-8, CXCR1 and CXCR2 mRNA expression ([1]; 5 μM Gefitinib, 24 hrs) | CXCR1 and CXCR2 mRNA expression ([1]; gefitinib 5 μM, 24 hours) | IL-8 mRNA expression ([1]; gefitinib 5 μM, 24 hours) | IL-8, CXCR1 and CXCR2 mRNA expression [2] | neutrophil chemotaxis (Chemotaxis Index) (human neutrophil) | IL-8 protein expression (autocrine secretion) (IL-8 in PC9GR) | IL-8 protein expression (autocrine secretion) (IL-8 in PC9) | colony formation rate (HCC827GR [3]) | colony formation rate (PC9GR [4]) | invasion rate, IL-8 stimulated (HCC827GR [5]; [8]) | invasion rate (HCC827GR [5]; [9]) | invasion rate, IL-8 stimulated (PC9GR [6]; [8]) | invasion rate (PC9GR [6]; [9]) | invasion rate, CXCL8 stimulated ([7]; LL/2, CXCL8 100 ng/ml) | number of invasive cells, MIP-2 induced ([7]; LL/2, MIP-2 50 ng/ml)
1 | COc1cc2ncnc(Nc3ccc(F)c(Cl)c3)c2cc1OCCCN1CCOCC1 [Gefitinib] | significantly enhanced | increased | increased | significantly enhanced | – | – | – | – | – | – | – | – | – | – | –
2 | B1 | – | – | – | – | effectively antagonize neutrophil response to CXCL8 | significantly attenuate IL-8 autocrine only in suspended culture | significantly attenuate IL-8 autocrine only in suspended culture | slow down significantly | slow down significantly | prevent significantly invasion rate | decreases invasion rate | prevent significantly invasion rate | decreases invasion rate | significantly suppressed CXCL8 stimulated cell invasion | significantly decreased the number of invasive cells
